In a protein production outcome set (Wang et al. 2014) one finds protein production data, which are given here for 18 sequences.
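Further: failed if final PepcDB status was selected cloned or expressed and not failed if soluble or beyond.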

The nature of the data set: label from the status in PepcDB records.
Consider “MAKGDQYQAHTEKYHDKKSKKSYKPVWIIISFIILITILLLPTPAGLPVMAKAALAILAFAVVMWVTEAVTYPVSATLILGLMILLLGLSPVQDLSEKLGNPKSGDIILKGSDILGTNNALSHAFSGFSTSAVALVAAALFLAVAMQETNLHKRLALLVLSIVGNKTRNIVIGAILVSIVLAFFVPSATARAGAVVPILLGMIAAFNVSKDSRLASLLIITAVQAVSIWNIGIKTAAAQNIVAINFINQNLGHDVSWGEWFLYAAPWSIIMSIALYFIMIKFMPPEHDAIEGGKELIKKELNKLGPVSHREWRLIVISVLLLFFWSTEKVLHPIDSASITLVALGIILMPKIGVITWKGVEKKIPWGTIIVFGVGISLGNVLLKTGAAQWLSDQTFGLMGLKHLPIIATIALITLFNILIHLGFASATSLASALIPVFISLTSTLNLGDHAIGFVLIQQFVISFGFLLPVSAPQNMLAYGTGTFTVKDFLKTGIPLTIVGYILVIVFSLTYWKWLGLV”, for which the protein production entry is given as “failed”.
In the case of “MAKKAMENGYKLILGSQSMARKQILAEMGYDFTIVTADIDEKAIRKEKPEDLVVTIAEAKANEIILKLGGENQFTQDSQPTLLITADTVVVYKGWDKAEVYFHEIPEHVIDDLIDDAITFKVAGGLMLEHPLISPFIDSVVGGVDTVMGLSKELTEKFINDVL”, the protein production entry is on record as “failed”.
For “MAKKENQQPDNHVGEVVSRSEQFIEKNMTKIGLVILGVFIIVAGIFAYKRFVSEPKAREAAAKVYLAEDKFIQELDSAALNGNGANEMGLLTVIKKYSGSDASNLAKAYAGICYYNLGEYQKAIDHLKGFSSKENMVAPSITRLIGDCYVQLKKYEEAVGYFEKAAAAASNDAITPGCLIKAGRVYEELKQYDKALAAYKQVKEKYYTSMEANTVEADIIRVKTKGAK”, the protein production entry was “failed”.
“MAKKKIVAVIQARMGSSRLPGKVLMTVAGKPLLEHIIDRLRRSRTLDDIVIATSDKPCDDPLVDFAQTRGVTLVRGSEDNVLLRFNKAAEEVDADVIIRVTGDAPLVDPEVMDRLVRTLLQEGAEYCTIEAGINSIHEGFCTFTRGALKRLMTEAPDDPVAIEHVTAYFIAHPDKFHIARIPVGNEHRFKGARLSVDTPADVQFFDELYRLLGVPAGDADIADVVRLLRNNPHLLQINQHVYQKKATDRSHKVLIRCDGDSRTGLGHVVRCLALAGELREKQGCGIIFAMASGEPGMKMVRQADFPLERQEDADEGEWMDGLISRHHPDVLILDIRNDLPVEKVDSWREDGILVVGIDDPTPRRLAADLLFYPPIPQISELNWNNFNGEICSGWEWVLLRKQFCAPCPPRNNNPPALLLTMGGSDPANFTVRVLRVLDELQNDFETIVVIGAGFVHEEDLQQFLSQARRHYRIEREVSDMASLMRQADLAIASFGVTAYELAASGVPAVYLCLTPDHARSASKFVDDRLAFSCGVLEECSNERIIESTLSLLDSRELRHEVGRRACATVDGYGATRIATKIVEKLERMHSSHGLEHHHHHH”: the protein production entry is listed as “failed”.
As for “MAKKWQQRAALRRKRISFHRSTDTTSSSTAAEKGCFVVYTSDRIRFAFPISYLSNSVIQELLKISEEEFGIPTEGPITLPFDSVFLEYLIRLVQRRMDGDTEKALITSISSTRCSLPCSFQLQEHSSTRLVF”, the protein production result is recorded as “failed”.
As for “MAKLHIPVMVDEVVHCLSPQKGQIFLDMTFGSGGHTKAILQKESDIVLYALDRDPTAYALAEHLSELYPKQIRAMLGQFSQAEALLMKAGVQPGTFDGVLMDLGCSSMQLDTPERGFSLRKDGSLDMRMDGGRSTGTCIYPKNIRGGEACQENRFSNCSGTQHLPHHQNPAACQHRCRSISSLCYLYTERLTTAIYPYCHQDFPGSSHICEQ”, the protein production result was “failed”.
Turning to “MAKLHITTWGCQMNEYDSSKMADLLNSTHGLELTDKPEEADILLLNTCSIREKAQEKVFSQLGRWKNWKKDKPDLIIGVGGCVASQEGEHIRERAPFVDIVFGPQTLHRLPEMINQIRSGDRAVVDISFPEIEKFDRLPEPKAEGPTAFVSIMEGCNKYCSFCVVPYTRGEEVSRPVDDVLFEIAQLAEQGVREVNLLGQNVNAYRGETFDGGICTFAELLRLVAAIDGIDRLRYTTSHPIEFTDDIIEVYRDTPELVSFLHLPIQSGADRVLTMMKRNHTALEYKAIIRKLRAVRPNIQISSDFIVGFPGETAEDFEQTMKIIEQVNFDMSFSFIYSARPGTPASDLPDDVSENEKKDRLAHLQQRINHQAMQFSRLMLGTEQRILVEGPSKKDIMELTGRTETNRVVNFIGTPNMIGKFVDIKITDVYSNSLRGEVIRTEDQMGLRIVESASSVIARTRKEDDLGVGKYAVNLLEHHHHHH”, the protein production result is recorded as “failed”.
Consider “MAKLVTENISKRFKNQDVLKHINITLENNEVYGLLGINGAGKTTLMKIICGILQQDSGEIKLDNRPMTRNDLHKVGSLIETPATYNHLSAQDNLKIVCLNESVDFSEINSVLSLVNLNVDKKKKVKDFSLGMKQRLGIAMALIKKPEILVLDEPSNGLDPYGIQELRELLKLLTEQGTSIIISSHILSEIQVLADHIGIIHEGELKYQQRNNKDENLEEIFFKITKGDYK”, for which the protein production entry is recorded as “failed”.
The entry for “MAKPIRVLLYYKYVPIENAEQFAADHLAFCKSIGLKGRILVADEGINGTVSGEYETTQKYMDYVHSLPGMEDLWFKIDEEEEQAFKKMFVRYKKEIVHLGLEDNNFDSDINPLETTGAYLSPKEFKDALLDEDTVVLDTRNDYEYDLGHFRGAIRPDIRNFRELPQWVRDHKEEFMDKRVVVYCTGGVRCEKFSGWLVREGYKDVGQLHGGIVTYGKDPEVQGELWDGKLYVFDERIAVDVNHVDPIVVGKDWFDGTPCERYVNCGNPFCNRRILTSEENEDKYLRGCSHECRVHPRNRYVSENDLSQEEVVERLAAIGESLDVTPA” is “failed”; for “MAKPNIDELNQILTSYQNTINDTLQLFEQVPSPTQDKLYWNDVLQISDHLSKQATIVGMLWITGEPPKAEAMKETMEAYFNALQGFLLHCHGSMVGAGTTLSSTIHASVKQIVDSSFRLLQGSVSLYEGSYEKGRKPTIPQLAGAVWEACSNLKNVPETNIKAIGRAMAHVAVSMKDVLREMKELKPASSSPDHNVSTNSDDDDLGDELSPEEFEVAKMVADIVSETLVVIKELIRAITCMIKLENPKDNSEFVDSFEKLLKLCQGIGVQIDELGACVYPPQEFGLMKQTVENMRESIGEIESDVKSSKNSSSEALSGSCRRLQSLIEHMVTELDTRIEAEVVYKMQNVTL” it is “failed”; for “MAKQATTSRLLPESMDNSGEFWLHAFESLVADLPEPAFVVDADGDITHWNQAVENILGLPASEAVGMNAYDVFGTEGQDETLAQEVIRTGEPVREDEFRSAERPDGTMAHARAVAIPLMGPGGDAIGALELLIDFSDIVEQREALQSLQSQMATDVESAVGEIGDSAAAVTEQSDDIKQMAGEQSENLDEVQSEVSGFSATVEEIASSAEEVSSQSGEARELAEESVETAEETIERVEDATESAEQVASDSTELRGHIEEIDEFVEVINDIADQTNMLALNANIEAARSNSDSDGFAVVADEIKELADESKQHADEVERIVGEVREMADSTAENVEETTDAIQQALTDIETVLDNQQAIVDATSETEQGIGEVAAATDDQAASAEEIASMIDEIAQRAAEVSESIDELADANETQHRLAQDLEENVERVERRLAEIME” it is “failed”.
Consider “MAKRTPSIDTKNLTAVQLMELDACVRCGECVKWCPTYAASGGKPGLAPRDKILRWRQYMNKSYGLKAKLFGPQEVSPSELEEFKDDVHGCTTCGVCATVCEAGINTVEIWEAIRTNLVKKGIGPYGKQSAFPKLVGQYHNPYMKDQKDRLAWVPPDVKIEDKADIVYFTGCTAGYNQLALAFATSRVLNKLGIKFAMLGEEEWCCGSALIRTGQVHVDDVARELARHNVEALQKKGAKKVLFACAGCFRAAKIDWPRLLGKELPFEVIHITQFLADLIQADKIKWEKPINKTITYHDPCHLGRHVGVFNAPRYVLSHIPGVKFVEMDRSKEFQRCCGAGGGVKAGMPDLAVAMGESRVKDALETNADILSSACPFCKRNLSDGRDALKSDIVVEDIIELVAEALGLSTS”, for which the protein production entry is on record as “failed”.
For the sequence “MAKSMRCKRVKRLRAIRREIVEKESFTLTREDAKSAAIEAALAAPKLPVRQAPVSPFMEVATPSSESASASTTIANDSDEEMDDEKKNKSLKPIGKKLKKKFKLGMKNRRSKGVLRGKRN”, the protein production entry is “failed”.
For the sequence “MAKTDRSQPSVLARIAAFRTGLSAEASAADYLERQGYRILARRFKTRCGEIDLVAQRDALVAFVEVKARGNVDDAAYAVTPRQQSRIVAAAEAWLSRHPEHAMSELRFDAILIAPNTAPRHLPGAFDATP”, the protein production result is “not failed”.
The entry for “MAKTIYQPAPEAESNIREERSQRPNNRRRILLITVAASVILGLVAILFGGAILNPAATPESEPTMTATQIIPLVILVVMFVVATKWPLNIGVMGLVASFGVGYFMLGMTDKEILADFPANIVITIIGVTYFFSMAQRNGTVDIIVQTCVRLVRGKTLLLPWVFFLLAASLTALGTFSPAAVALLAPAAIGLAYESRIHPVLMGAFIINGAHAGGFSPLSVAGVLVHDIAVKNGFPISQGALFGASFALNLILSVLTVVLFALLGKLRDGATGQHADLDTTRTTRPHGQQILTLALIVAMLVCALGFHMPIGFVALSAGLLLALVNIKEHRTFIGGVSWSTVLLVAGMITYVSLLQHVGVIDTLAEQALALGAPLLIALVLCYVIGVGSAFASSTALLTAFIPLAGPLLATSSLSASGTVAALAIAATVVDVSPFSTDGALVVANAREDDRQRVYKQLMMYAGGVVLVAPALAWALLVPTGIM” is “failed”; for “MAKTLGLHILADLYGVDADKIDRVEDIRELLEGAVKYANLTKISSHYYQFQPHGATGVVLLAESHISIHTWPEHGLATVDVYTCGDPSKAYRAMDYIITQLNPKRIDKQVHERGIVEEESNQSEAEKLRSILLQV” it is “not failed”; for “MALAGLLLGSALASSARAQSSDAAKPELEDALAVVDSLRRAGAFPAAQERLQSLREQHPERVPVLWRLVYTYADLGQSTDEENVRAQYYNNALNVAKAGLAADSTSARAHLAMAVAQGRAALDAGTRERIERSRAVKRHADRALAIDSTLDGAYHTRGRWHREVEDIGFVQRAIVKTVYGGLPESSIDQAVRDFRRALELRDRIFHHLELGKTYLQMDRPDAARRELRAVLDMPAEEPFDPRYKDEARRLLDDLD” it is “failed”.
As to “MALCLNPDCGQPNNDDANSSCATCGSPLLLRDRYRVVKAIGQGGFGATYLGQDLQLPGEPLCVIKQLLPQVQDPEIMLMARELFRREAKTLGRIGSHPQVPTLLDYFEAPEGFYLVQEYIRGKTLEQEVREQGVYSETATKQFLSELLPLLQYLHNQGVIHRDIKPANLLRRDIDRRLVLIDFGAVKDQVSQIQGGSGLTALTSFSVGTRGYAPPEQLAMRPVYSSDLYSLGVTCLFLMTGKGPQDLDYNPVTGELLWRNSVQVSDALATVLGKMLAASVRYRYQRAEQVMTALDLQPYHDSLIQGLSALPPGAPPIKPSSGRTGSGYPSPQERQAEAIRARRRDRSGNRPEQLADAQQIAAWTGGTSNTSGNNSAGRLSLNARDILATYQRGRRDFSQQPLNRIDLSESQLPSVNFQGAQLKESLFVAAQLERADFGQANLHRANLRRANLHQAYFGNADLSFANLQKADLSDAILSNANLRGTNLCGANLRGAKLTPVQLKMAKTNWWTILPDGRRGRLF”, the protein production result is on record as “failed”.
